To fix the notation:
B1: HDV Ribozyme (parent)
chain: GGCCGGCAUGGUCCCAGCCUCCUCGCUGGCGCCGGCUGGGCAACAUUCCGAGGGGACCGUCCCCUCGGUAAUGGCGAAUGGGACCCA

The variants in this data set derive from B1. The data set can be described thus: self-cleavage, relative activity (ratio to wild type); higher = more cleavage; co-transcriptional.
Regarding G10U U46A, the self-cleavage is 0.489. With C19G U46G the figure was 0.107. Next, U12C G54C: 0.356. Next, C7G C13G: 0.0554.

With G38A C62G, the self-cleavage worked out at 0.298. With U23C U60G the figure was 0.798. In the case of A8G U46G, the self-cleavage worked out at 0.623.

For A42G G52C, the self-cleavage turned out to be 0.733. For U9G C26A, the self-cleavage turned out to be 1.23. Next, G34A A45U: 0.16; U46C C58G: 0.582; G28C G38C: 0.0426. With U12G U47A the figure was 0.776.

For G10C A42U, the self-cleavage was 0.289.

On to G52U U79G, for which the self-cleavage came to 0.521.

As for C30A C48G, the self-cleavage stood at 0.467. Next, G17A C57G: 0.674; U20A G50A: 0.0449; U47C G67A: 0.923. Consider C22U G67A, for which the self-cleavage worked out at 0.522. With A45C G53C the figure was 0.755. With U69A A78G the figure was 0.959.

For the variant G76A A77C, the self-cleavage stood at 0.657. With G31A C86A the figure was 0.669; with C30G C36G, 0.0594. With A8U C57A the figure was 1.05. Next, C7A G59U: 0.646; C24G G76U: 0.339.

As to G11C C62G, the self-cleavage stood at 0.214. With G5A C44U the figure was 0.0627; with C19U G59C, 0.205. Take G11A C13U: the self-cleavage was 0.0297.

For A16U G80C, the self-cleavage was determined as 0.145.

In the case of C30U G68C, the self-cleavage stood at 0.575.

As to U47A C66U, the self-cleavage was 1.17. Next, G2U U72G: 0; C7A C64U: 0.491. With G6U U72C the figure was 0.

As for U9G C62U, the self-cleavage was found to be 0.731.

As to G34U U37G, the self-cleavage was 0.0519. Regarding A51C U72G, the self-cleavage is 0.529.

For the variant A42U A56C, the self-cleavage is 0.629. Next, U12G C49A: 0.935. In the case of C26A C58G, the self-cleavage worked out at 1.09. With G53A G76C the figure was 1.08; with G5U G11U, 0.156; with G81A A83U, 0.187. Next, G2C A45U: 0. Next, C62A G74U: 0.367. With U9C C19A, the self-cleavage was determined as 0.175.

G11U G28A: the self-cleavage is 0.0219.

Regarding C22G A83C, the self-cleavage came out at 0.0898. Next, C33G C58A: 0.369; A51G G82C: 0.322. Next, A16C G80C: 0.201; A43C U72C: 0.578; G52A C64A: 0.786.

Take U12C A83C: the self-cleavage is 0.166. Next, C41U C75A: 0.0665. With U27G C84U the figure was 0.612. Take C7U U60C: the self-cleavage was found to be 1.26. Next, U46C G50C: 0.932; A8G C33A: 0.101; G10U C75U: 0.0678.

Take C19A G50C: the self-cleavage is 0.0923.

Consider G25C G80U, for which the self-cleavage came out at 0.126. Next, A56C G76C: 1.06. Next, C19G G55C: 0.0475; U27A A56G: 1.08; G10A G25A: 0.126. Next, G5U G52U: 0.277; U37C C86G: 0.956; A8G U37A: 0.147.

On to G35U C49G, for which the self-cleavage is 0.325. Next, G35U A42U: 0.246; G11C A16G: 0.277. With G76U A77G the figure was 0.978; with U23C A45G, 0.8; with A16U C21U, 0.122. Turning to C21U G40C, the self-cleavage was 0.166.

Consider C62A G80U, for which the self-cleavage was determined as 0.16. Next, C4U G40U: 0.48; G50A A56C: 1.25. Next, A45C C62G: 0.391; A45C C62A: 0.584; U20A U23A: 0.277. Turning to C61A A71G, the self-cleavage stood at 1.11. Next, G1C G35U: 0.155.

For G55C C66G, the self-cleavage was determined as 1.2.

In the case of G17A U46G, the self-cleavage was 0.229. With U37A C57G the figure was 0.213. With U12C C22G the figure was 0. Next, U9C G82C: 0.262. With U9C G55C, the self-cleavage was 0.703. With G52U G59A the figure was 0.982; with C7U G31U, 0.575. With C19G U72A the figure was 0.0563; with G50A G59C, 1.31. Next, G6C G35C: 0.0723. Consider C22U G50C, for which the self-cleavage was found to be 0.671. As to U12A C66G, the self-cleavage came to 0.375. With C32A C49U the figure was 0.0997; with C64A C75A, 0.237.

For the variant C64A C75G, the self-cleavage worked out at 0.18. With C44U G82U the figure was 0.282; with C75G G80C, 0.0709. With G2C U72G the figure was 0.0791.

With C21A G38A, the self-cleavage amounted to 0.0237. Next, C4A C24G: 0.0573; A42U U60G: 0.615; A70U A71U: 0.98. Next, U27A G82U: 0.906; G17A G54C: 0.458; C26U C62U: 1.1. With C21G G40U the figure was 0.0308; with C24A C84U, 0.587. Turning to G34C U65G, the self-cleavage came out at 0.208. Next, C4U G38U: 0.13; G10C G54U: 0.897; G25A G53C: 0.248.

Take U60C C86G: the self-cleavage is 0.982. With U9C A42U the figure was 0.767; with G25U C66G, 0.0354; with A8G U69A, 0.942. With C48G A70U, the self-cleavage was determined as 0.506. With A43C C48A the figure was 0.386; with G11C C86A, 0.489. With G59U G81U the figure was 0.433; with C7A G73C, 0.106; with U65C A77U, 0.806.

Consider U9C C63U, for which the self-cleavage worked out at 0.987. Turning to C84A C86G, the self-cleavage is 0.755. With A8G C85G the figure was 0.895. Turning to C3A G68A, the self-cleavage was found to be 0.408. Next, G10U U37A: 0.058; G55C A83U: 0.575; G55C A83C: 0.314. With U69A A77G, the self-cleavage was found to be 0.72. Take G54U U69G: the self-cleavage stood at 1.03. With C57U G76C the figure was 0.902. Next, C22A A78U: 0; U27A A87G: 0.847.

For the variant C7U G40U, the self-cleavage is 0.821.

Turning to G29U A77G, the self-cleavage was 0.178. Next, G25A U72A: 0.158; A45U G53A: 0.997; A16C A83G: 0.877. For the variant U20A G34C, the self-cleavage amounted to 0.199.

With A16C G25C, the self-cleavage was 0. Next, G25A A45C: 0.227. Take A78G C85U: the self-cleavage came to 0.748. Next, U47C G68C: 0.44; C18G G50A: 0.138; G68U G74A: 0.328. For the variant G31U G35C, the self-cleavage was found to be 0.141. In the case of G5U U46A, the self-cleavage was 0.119.

In the case of A70C G80A, the self-cleavage came to 0.177. With C15A U79G the figure was 0.831; with A16U C32U, 0.727. Next, G2U G74U: 0.056; G5A G68C: 0.17; C58G G80A: 0.332. With C3A G76A the figure was 0.783; with U60A G74U, 0.521.

Take G6A G81U: the self-cleavage was 0.0773. With C24U C64G the figure was 0.779; with G25U G31C, 0.101.
